Substitutions are numbered along the chain they refer to.
Key:
Test in all cases: cell_activity; 293H endogenous locus, 5 ug plasmid
Conditions in all cases: tags: RM2 linker between monomers
[1] = target: T1, SCOH-NANOG2 pCLS4418 (single-chain I-CreI variant)
T1 chain: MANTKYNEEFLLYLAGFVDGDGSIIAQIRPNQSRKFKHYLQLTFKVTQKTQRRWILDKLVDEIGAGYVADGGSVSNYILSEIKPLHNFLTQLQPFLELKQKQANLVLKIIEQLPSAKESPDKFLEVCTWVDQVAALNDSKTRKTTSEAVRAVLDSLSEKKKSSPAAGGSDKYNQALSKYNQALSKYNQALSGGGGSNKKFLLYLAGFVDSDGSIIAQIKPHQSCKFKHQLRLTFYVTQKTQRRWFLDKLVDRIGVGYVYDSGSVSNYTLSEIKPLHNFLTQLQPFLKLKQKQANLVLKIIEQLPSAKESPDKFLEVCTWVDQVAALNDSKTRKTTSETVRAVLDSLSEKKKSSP
Procedure: (§1) Single Chain I-CreI variants targeting respectively NANOG2 and NANOG4 targets were cloned in the pCLS1853 plasmid. The resulting plasmids, respectively pCLS4415, pCLS4416, pCLS4417, pCLS4418, pCLS4421 and pCLS4422 were used for this experiment. The day of […], cells from the human embryonic kidney cell line, 293-H (Invitrogen) were seeded in a 10 cm dish at density of 1×10⁶ cells/dish. The following day, cells were transfected with 10 μg of total DNA corresponding to the combination of an empty plasmid with a meganuclease-expressing plasmid using lipofectamine (Invitrogen). Plasmid ratio (empty/meganuclease plasmid) used were 10 μg/0 μg, 9 μg/1 μg, 5 μg/5 μg 0 μg/10 μg. 48 hours after transfection, cells were collected and diluted (dilution 1/20) in fresh culture medium. After 7 days of culture, cells were collected and genomic DNA extracted. 300 ng of genomic DNA were used to amplify the endogenous locus surrounding the meganuclease cleavage site by PCR amplification.
(§2) PCR amplification was performed to obtain a fragment flanked by specific adaptator sequences (SEQ ID NO 63; 5′-[…]-3′ and SEQ ID NO 64; 5′-[…]-3′) provided by the company offering sequencing service (GATC Biotech AG, Germany) on the 454 sequencing system (454 Life Sciences). An average of 18,000 sequences was obtained from pools of 2 amplicons (500 ng each). After sequencing, different samples were identified based on barcode sequences introduced in the first of the above adaptators.
(§3) Sequences were then analyzed for the presence of insertions or deletions events (InDel) in the cleavage site of each NANOG target.

[2] = target: T2, SCOH-NANOG2 pCLS4415 (single-chain I-CreI variant)
T2 chain: T1 chain with I55F, A65V, A148T
Procedure: as §1, §2, §3

[3] = target: T3, SCOH-NANOG2 pCLS4416 (single-chain I-CreI variant)
T3 chain: T1 chain with I55F, A65V, E81K, A148T
Procedure: as §1, §2, §3

B1: NANOG2 (NANOG2.1) target (dsDNA)
DNA 1: CCAACATCCTGAACCTCAGCTACA
DNA 2: TGTAGCTGAGGTTCAGGATGTTGG
B1 was tested, and the activity [1] was 0.317 % InDel, the activity [2] was 0.276 % InDel and the activity [3] was 0.222 % InDel.

— patent publication US20130189759, “MEGANUCLEASES VARIANTS CLEAVING A DNA TARGET SEQUENCE IN THE NANOG GENE AND USES THEREOF” (Cellectis, published 2013)
